Our source for the Kd values is article PMC6715699.

For the data set, the target named is T1, TRF2 (UniProt Q15554).
T1 sequence: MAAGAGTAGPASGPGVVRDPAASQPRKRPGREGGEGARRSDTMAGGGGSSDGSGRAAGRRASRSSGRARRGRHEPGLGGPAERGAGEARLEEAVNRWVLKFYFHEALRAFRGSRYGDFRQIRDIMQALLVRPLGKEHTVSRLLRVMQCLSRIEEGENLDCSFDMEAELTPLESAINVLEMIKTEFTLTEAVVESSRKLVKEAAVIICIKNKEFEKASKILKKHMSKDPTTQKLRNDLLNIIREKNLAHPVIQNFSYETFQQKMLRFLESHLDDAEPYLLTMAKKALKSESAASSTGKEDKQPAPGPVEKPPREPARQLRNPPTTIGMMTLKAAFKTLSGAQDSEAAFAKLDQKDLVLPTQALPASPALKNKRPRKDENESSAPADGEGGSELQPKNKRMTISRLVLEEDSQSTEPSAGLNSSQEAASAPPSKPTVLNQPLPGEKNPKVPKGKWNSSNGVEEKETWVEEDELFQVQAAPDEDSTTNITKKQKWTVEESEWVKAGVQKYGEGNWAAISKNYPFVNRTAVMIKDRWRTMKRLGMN
As to the kind of experiment: MST. As to conditions: 50 nM labelled DNA; MST in standard MST buffer (composition and pH not given), premium-treated capillaries, Monolith NT.115; 20 min at room temperature stated for the protein ….

For the sequence “TTAGGGTTAGGGTTAGGG (double strand) [TELO (TTAGGG)3]”, the Kd (usually the constant that tells how readily two partners part at equilibrium) came to 12.2 nM.
